This passage reports self-cleavage results from the RNAGym collection of RNA variant scans (doi:10.1093/nar/gkz1192).

To fix the notation:
B1: CPEB3 Ribozyme (parent)
chain: UAACAGGGGGCCACAGCAGAAGCGUUCACGUCGCAGCCCCUGUCAGAUUCUGGUGAAUCUGCGAAUUCUGCUGUAUAUCUC

This data set covers variants of B1. The experiment in a line: self-cleavage, relative activity (ratio to wild type); higher = more cleavage; in vitro, sequencing. The method in brief: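 Barcoded CPEB3 ribozyme mutants, produced by rounds of error-prone PCR, self-cleaved while being transcribed with T7 RNA polymerase for 5 hours at 37°C and during a subsequent 15 min DNase I step before EDTA was added. Sequencing of template-switched cDNA on Illumina gave cleaved and total reads, and DNA sequencing assigned barcodes to variants. Each variant's relative activity is its cleaved/total read fraction divided by the unmutated ribozyme's fraction, averaged across three batches. A variant needed a minimum of 5 reads.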
Regarding C79A, the self-cleavage was determined as 1.19.
For C79U the value was 1.17; for C79G, 1.13; for A77C, 0.98.
For A77U the value was 1.11; for A77G, 1.06.
Under U76A stands 1.14; under U76G, 0.9.
Take U76C: the self-cleavage is 1.1.
Under C79U U80A stands 1.24; under U80C, 1.08; under U80A, 1.13.
For U80G the value was 1.18; for C81G, 1.14; for C81A, 1.05.
For C81U the value was 1.18; for U76C U78A, 1.19.
Take U76C U78C: the self-cleavage is 1.01.
Under A77G U80C stands 1.12.
On to A77G U80G, for which the self-cleavage was found to be 1.21.
Take A77G U80A: the self-cleavage amounted to 1.18.
In the case of U76C U80A, the self-cleavage was 1.26.
For U76C U80C, the self-cleavage was 1.13.
Under U76C U80G stands 1.24; under A75U U78C, 1.15; under A75U U78A, 1.11.
For C79A U80C the value was 1.23; for A75U A77U, 1.2.
For U76A A77U the value was 1.01.
U76A A77G: the self-cleavage was determined as 1.01.
On to U76A U78G, for which the self-cleavage came to 1.37.
Under U76A U78A stands 1.09.
For U76A U78C the value was 1.1.
For the variant U76C A77G, the self-cleavage is 1.07.
Turning to U76C A77U, the self-cleavage is 1.07.
For C79G U80C the value was 0.27.
Under U78A U80G stands 1.29; under U78A U80C, 1.07; under U78A U80A, 1.23.
For U76C C81A the value was 1.24.
Consider A77U C81A, for which the self-cleavage stood at 1.31.
For U76G A77U the value was 0.75.
Under U78A C79U stands 1.29; under A77U U78C, 1.05.
Under A77U U78A stands 0.9; under A75U U76C, 1.29; under U76A U80A, 1.17.
Regarding U76A U80C, the self-cleavage is 1.23.
U76G C81A: the self-cleavage worked out at 1.14.
For U76A C79A, the self-cleavage was 1.2.
Under U78A C81U stands 0.8; under A77U U80G, 1.26; under A77U U80A, 1.18.
For the variant A77U U80C, the self-cleavage is 1.18.
Under A77U C79A stands 1.26.
For A75U U80C the value was 1.1.
Under A75U U80G stands 1.26; under A75U U80A, 1.25.
Regarding A77G U78C, the self-cleavage was determined as 0.82.
Regarding A77G U78G, the self-cleavage worked out at 0.9.
Take A77G U78A: the self-cleavage was 1.17.
For U80A C81U, the self-cleavage worked out at 1.24.
For U80C C81A the value was 1.23; for U80C C81U, 1.01; for U78C C81A, 1.21.
With U78C C81U, the self-cleavage is 1.15.
Under U78C C81G stands 1.25; under U76C C79G, 1.22.
Under A77C U80A stands 1.05; under U80G C81U, 1.39.
For the variant U78A, the self-cleavage came to 1.12.
For U78C the value was 1.02.
Take U78G: the self-cleavage stood at 1.1.
For U78C U80G the value was 1.15; for U78C U80A, 1.2; for U78C U80C, 0.82.
For A77G C81A the value was 1.2.
As to U78G U80C, the self-cleavage worked out at 0.94.
Under U78C C79U stands 0.84.
For U78C C79G the value was 1.18.
